Assay results as given in PMC12140367, “Discovery, Herbicidal Activity and Biosynthesis of a Novel Natural Tetramic Acid from Alternaria Species” (Advanced Science, 2025).

How the values were obtained:
Format in all cases: biochemical, Alternaria alternata
CCC(O)(CC(=O)O)C(=O)O = test: UPLC-MS quantification of 3EMA formed; conditions: 250 mM potassium phosphate pH 7.0, 30 °C
CCC(=O)C(=O)O = test: UPLC-MS quantification of 2EMA formed; conditions: 1 mM acetyl-CoA, 10 mM MgCl2, potassium phosphate pH 7.5, 30 °C
CCC(C(=O)O)C(O)C(=O)O = test: UPLC-MS quantification of OVA formed; conditions: 1 mM NAD+, 5 mM MnCl2, 1 mM DTT, MOPS-KCl pH 7.5, 30 °C

**Q.** Which Km (CCC(O)(CC(=O)O)C(=O)O) does the source give for IPMDH (Alternaria alternata) here?
**A.** 786.26 µM

**Q.** Which Km (CCC(=O)C(=O)O) does the source give for IPMS (Alternaria alternata) here?
**A.** 164.36 µM

**Q.** Which Km (CCC(C(=O)O)C(O)C(=O)O) does the source give for ISMD (Alternaria alternata) here?
**A.** 87.20 µM
